For this assay, the target named is surface GFP (GFP fused to the PDGF transmembrane domain) [GFP: P42212]. Nature of the assay: cell-based or functional assay.

The substance “α-GFP nanobody (LaG16_2) synNotch Gal4VP64 receptor (from UniProt Q01705 1427-1752)” yielded a fraction of T cells with BFP reporter expression at 24 hours greater than 50%.

For the origin of these results see patent publication US20250243257A1.
